# Measurements as given in article doi:10.1101/2024.09.06.611644 (bioRxiv, 2024).
# Target: wild-type AC fused to GFP (AC-GFP) (GFP moiety: Aequorea victoria …, UniProt P42212 = GFP)
# Experiment: two-hybrid
binder,measurement,value
CaM-V9A fusion expressed from pK1Cam-V9A or pK2Cam-V9A (VHH) VHH: DVQLQESGGGSVQAGGSLRLSCAASGDTFSSYSMAWFRQAPGKECELVSNILRDGTTTYAGSVKGRFTISRDDAKNTVYLQMVNLKSEDTARYYCAADSGTQLGYVGAVGLSCLDYVMDYWGKGTQVTVSS,binding result,binds
